Results as given in US20160311919A1.

How the values were obtained:
[1] = molecular target: GPNMB (CG56972), native full-length protein on the cell surface or in cell lysates (human) (UniProt Q14956); experiment: flow cytometry on HEK293 cells transfected with GPNMB plasmid, secondary antibody alone; on empty-vector cells it prints 5.86
[2] = molecular target: GPNMB-V5His (recombinant human GPNMB extracellular domain with C-terminal V5-His tag) (human) (UniProt Q14956); experiment: ELISA, coated GPNMB, Ab 1 ug/mL
[3] = molecular target: GPNMB-V5His (recombinant human GPNMB extracellular domain with C-terminal V5-His tag) (human) (UniProt Q14956); experiment: ELISA, coated GPNMB, Ab 3 ug/mL
[4] = molecular target: GPNMB-V5His (recombinant human GPNMB extracellular domain with C-terminal V5-His tag) (human) (UniProt Q14956); experiment: ELISA, coated GPNMB, Ab 37 ng/mL
[5] = molecular target: GPNMB-V5His (recombinant human GPNMB extracellular domain with C-terminal V5-His tag) (human) (UniProt Q14956); experiment: ELISA, coated GPNMB, Ab 111 ng/mL
[6] = molecular target: GPNMB-V5His (recombinant human GPNMB extracellular domain with C-terminal V5-His tag) (human) (UniProt Q14956); experiment: ELISA, coated GPNMB, Ab 333 ng/mL
[7] = molecular target: GPNMB-V5His (recombinant human GPNMB extracellular domain with C-terminal V5-His tag) (human) (UniProt Q14956); experiment: ELISA, coated GPNMB, Ab 12.3 ng/mL
[8] = molecular target: GPNMB-V5His (recombinant human GPNMB extracellular domain with C-terminal V5-His tag) (human) (UniProt Q14956); experiment: SPR (Biacore), mAb on protein A, GPNMB 880 nM
[9] = molecular target: GPNMB (CG56972), native full-length protein on the cell surface or in cell lysates (human) (UniProt Q14956); experiment: FACS, UACC-62 cells, Ab 1 ug/mL
[10] = molecular target: GPNMB (CG56972), native full-length protein on the cell surface or in cell lysates (human) (UniProt Q14956); experiment: flow cytometry on HEK293 cells transfected with GPNMB plasmid, 10 µg/mL antibody, PE goat anti-human secondary; the same staining on empty-vector cells prints 7.96
[11] = molecular target: GPNMB-V5His (recombinant human GPNMB extracellular domain with C-terminal V5-His tag) (human) (UniProt Q14956); experiment: ELISA, coated GPNMB, secondary antibody alone (column head 3 ug/mL)
[12] = molecular target: GPNMB (CG56972), native full-length protein on the cell surface or in cell lysates (human) (UniProt Q14956); experiment: flow cytometry on SK-MEL-2 cells, Anti Human IgG PE

Chain of GPNMB (CG56972), native full-length protein on the cell surface or in cell lysates (human) (Q14956 23-492): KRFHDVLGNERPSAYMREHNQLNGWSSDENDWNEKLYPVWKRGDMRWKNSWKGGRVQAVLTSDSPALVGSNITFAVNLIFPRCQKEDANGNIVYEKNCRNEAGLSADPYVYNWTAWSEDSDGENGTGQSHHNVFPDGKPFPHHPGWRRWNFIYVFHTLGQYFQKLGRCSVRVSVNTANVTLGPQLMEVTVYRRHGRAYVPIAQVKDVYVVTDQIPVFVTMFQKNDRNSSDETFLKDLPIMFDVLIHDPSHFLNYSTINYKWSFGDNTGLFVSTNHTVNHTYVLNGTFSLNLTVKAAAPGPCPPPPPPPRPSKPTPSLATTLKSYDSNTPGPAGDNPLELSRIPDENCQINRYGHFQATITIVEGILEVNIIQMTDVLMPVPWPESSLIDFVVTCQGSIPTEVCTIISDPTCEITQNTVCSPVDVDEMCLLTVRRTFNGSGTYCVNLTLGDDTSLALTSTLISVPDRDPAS

Substance Secondary Ab-PE (antibody) has a Geometric Mean [1] of 7.69.

Substance “Mab1.15.1 (CR011), fully human IgG2 (antibody)” has an Avg OD [2] of 1.05 OD, an Avg OD [3] of 1.16 OD and an Avg OD [4] of 0.381 OD. It also gave an Avg OD [5] of 0.701 OD, an Avg OD [6] of 0.902 OD and an Avg OD [7] of 0.168 OD. For the same substance, the Kd [8] was 52 nM.

With CR011.2.6.2 (antibody) the Geo Mean Ratio (relative to pK16) [9] was 1.9.

Work on isotype-matched control IgG2 antibody yielded a Geometric Mean [10] of 8.63.

“Secondary Ab control (Table 6) (antibody)” gave an Avg OD [11] of 0.011 OD.

Work on Control (antibody) yielded a Geo Mean [12] of 3.03, a Mean [12] of 3.54 and a Median [12] of 2.84.

For Isotype control (Table 6) (antibody), the Avg OD [2] was 0.008 OD, the Avg OD [3] was 0.009 OD and the Avg OD [4] was 0.009 OD. The Avg OD [5] was 0.009 OD, the Avg OD [6] was 0.009 OD and the Avg OD [7] was 0.011 OD.

In the case of Irrelevant Antibody (Table 6), the Avg OD [2] is reported as 0.008 OD, the Avg OD [3] is reported as 0.009 OD and the Avg OD [5] is reported as 0.013 OD. The Avg OD [6] was 0.012 OD.
